Sequences and labels used below:
B1: Apoptosis-associated speck-like protein containing a CARD, residues 114 to 194; numbered along this chain, Q9ULZ3 (parent)
chain: FIDQHRAALIARVTNVEWLLDALYGKVLTDEQYQAVRAEPTNPSKMRKLFSFTPAWNWTCKDLLLQALRESQSYLVEDLER

± gives the uncertainty stated by the source.

Variants of B1 are the subject of this data set. The experiment in a line: abundance fitness (aPCA) (normalised: wild type 0, dead -1); higher = more abundant; growth selection in yeast, the domain comes from the species named. The following applies: Homo sapiens.
For L19E, the abundance fitness was -0.882 ± 0.23.
Regarding L19Q, the abundance fitness was -0.439 ± 0.13.
In the case of I10F it was -0.84 ± 0.17.
As for I10R, the abundance fitness was -0.631 ± 0.064.
With I10P, the abundance fitness is -0.985 ± 0.25.
Under I10G stands -0.74 ± 0.076; under R47V, -0.155 ± 0.052.
Under R47P stands -0.814 ± 0.12; under R47I, -0.254 ± 0.11; under H5G, -0.833 ± 0.082.
Turning to H5K, the abundance fitness was -0.605 ± 0.19.
For H5L, the abundance fitness was -0.071 ± 0.042.
On to A22W, for which the abundance fitness was -0.183 ± 0.06.
Under A22S stands -0.057 ± 0.07; under A22I, 0.126 ± 0.28; under S44C, -0.268 ± 0.089.
In the case of S44T it was -0.097 ± 0.066; in that of S44R, -0.064 ± 0.054.
In the case of S44Q, the abundance fitness was 0.061 ± 0.061.
Turning to T14Q, the abundance fitness is -0.252 ± 0.12.
T14I: the abundance fitness is -0.541 ± 0.17.
Under T14N stands -0.206 ± 0.15; under T14E, -0.004 ± 0.078.
In the case of T59W it was 0.041 ± 0.057; in that of T59F, -0.023 ± 0.1.
With T59L, the abundance fitness is -0.149 ± 0.053.
Under T59Y stands -0.102 ± 0.1; under T59H, 0.07 ± 0.076.
In the case of T59R it was 0.111 ± 0.042.
Y24M: the abundance fitness was -0.501 ± 0.065.
On to Y24W, for which the abundance fitness was -0.301 ± 0.071.
Turning to D62L, the abundance fitness is -0.43 ± 0.073.
Under D62M stands -0.295 ± 0.1.
In the case of D62G it was -0.194 ± 0.06; in that of D62E, 0.047 ± 0.059.
In the case of D62C it was -0.265 ± 0.23; in that of D62S, -0.168 ± 0.055; in that of L79Q, -0.706 ± 0.17.
L79T: the abundance fitness is -0.848 ± 0.25.
With L79F, the abundance fitness is -0.678 ± 0.16.
A67L: the abundance fitness was determined as 0.033 ± 0.051.
As to A67D, the abundance fitness is -1.02 ± 0.27.
Under A67S stands -0.544 ± 0.086; under A67V, -0.484 ± 0.055; under E31D, -0.161 ± 0.12.
Under E31L stands -0.461 ± 0.072.
As for E31C, the abundance fitness is -0.832 ± 0.21.
For E31I, the abundance fitness is -0.581 ± 0.12.
As for E77D, the abundance fitness is -0.115 ± 0.11.
In the case of E77L it was -0.428 ± 0.08.
In the case of E77H it was -0.365 ± 0.19.
Under S73V stands -0.517 ± 0.077.
For the variant S73L, the abundance fitness was -0.112 ± 0.046.
On to S73C, for which the abundance fitness is -0.257 ± 0.09.
Consider S73D, for which the abundance fitness was -0.338 ± 0.13.
In the case of S73T it was -0.048 ± 0.081.
Turning to C60I, the abundance fitness is -0.473 ± 0.15.
In the case of C60M it was 0.122 ± 0.066.
For the variant C60H, the abundance fitness amounted to 0.185 ± 0.13.
In the case of C60S it was 0.167 ± 0.045.
In the case of C60F, the abundance fitness is -0.162 ± 0.058.
Regarding A35I, the abundance fitness was -0.862 ± 0.44.
In the case of A35L it was -0.218 ± 0.054.
Under A35R stands -0.491 ± 0.059; under L65M, -0.194 ± 0.091; under L65Y, -0.098 ± 0.14.
Regarding L65H, the abundance fitness is -0.143 ± 0.099.
On to P54K, for which the abundance fitness worked out at 0.047 ± 0.088.
In the case of P54M it was -0.292 ± 0.11.
In the case of P54G it was -0.017 ± 0.044; in that of P54D, 0.132 ± 0.094; in that of A7C, -0.2 ± 0.05.
As to A7S, the abundance fitness was -0.014 ± 0.054.
In the case of A7R it was -0.119 ± 0.045; in that of A7T, -0.277 ± 0.11; in that of A7V, -0.249 ± 0.058.
As for A7Q, the abundance fitness turned out to be 0.045 ± 0.084.
Consider V13E, for which the abundance fitness was -0.538 ± 0.11.
In the case of V13S it was -0.535 ± 0.067.
Consider V13W, for which the abundance fitness was -0.893 ± 0.12.
Under V13Q stands -0.775 ± 0.14.
Take V13A: the abundance fitness was -0.039 ± 0.061.
As for L68W, the abundance fitness was -1.18 ± 0.26.
As to L68I, the abundance fitness came out at 0.001 ± 0.13.
Take L68C: the abundance fitness was -0.688 ± 0.21.
As for Q66M, the abundance fitness is -0.252 ± 0.11.
Consider Q66C, for which the abundance fitness was -0.487 ± 0.078.
For Q66P, the abundance fitness is -0.48 ± 0.085.
Turning to Q66W, the abundance fitness is -0.801 ± 0.13.
In the case of Q66D it was -0.174 ± 0.1; in that of K61H, 0.028 ± 0.1; in that of K61V, -0.649 ± 0.072.
Under K61D stands -0.534 ± 0.19; under K61C, -0.379 ± 0.089; under A55M, -0.162 ± 0.12.
Under A55E stands 0.087 ± 0.073; under A55S, 0.107 ± 0.056; under P43S, -0.061 ± 0.046.
Take P43L: the abundance fitness was -0.263 ± 0.046.
P43C: the abundance fitness was -0.147 ± 0.08.
In the case of P43V, the abundance fitness was -0.096 ± 0.053.
Under S51T stands -0.141 ± 0.056; under S51F, -0.633 ± 0.14; under S51E, -0.012 ± 0.068.
In the case of S51R it was -0.839 ± 0.083.
In the case of S51L it was -0.938 ± 0.13; in that of S51Y, -0.843 ± 0.2; in that of L75H, -0.611 ± 0.23.
As for L75T, the abundance fitness was -0.924 ± 0.35.
Under L75K stands -0.944 ± 0.39; under L75V, -0.408 ± 0.077; under V16F, -0.941 ± 0.26.
Under V16E stands -0.928 ± 0.17; under V16I, -0.464 ± 0.12; under V16Q, -0.865 ± 0.15.
For V16C, the abundance fitness was -0.342 ± 0.16.
Under D3R stands -0.544 ± 0.095; under D3I, -0.796 ± 0.27.
In the case of D3P it was -0.951 ± 0.21; in that of W18D, 0.18 ± 0.097.
Consider W18T, for which the abundance fitness was found to be 0.053 ± 0.066.
Under W18L stands 0.043 ± 0.048.
In the case of W18C it was 0.029 ± 0.069; in that of W18A, 0.248 ± 0.046.
With R37Y, the abundance fitness was -0.118 ± 0.12.
Under R37W stands -0.373 ± 0.059; under R37I, 0.063 ± 0.11.
Take R37E: the abundance fitness was -0.304 ± 0.063.
On to Q34T, for which the abundance fitness is -0.285 ± 0.11.
On to Q34S, for which the abundance fitness was -0.388 ± 0.08.
For Q34P, the abundance fitness is -0.817 ± 0.13.
Under N15H stands -0.291 ± 0.11; under N15T, -0.518 ± 0.099.
As for N15F, the abundance fitness was -0.997 ± 0.3.
Under L63P stands -0.438 ± 0.075; under P40E, -0.257 ± 0.086.
Under P40M stands -0.896 ± 0.24; under P40S, -0.291 ± 0.063.
Under P40F stands -0.912 ± 0.28; under P40C, -0.434 ± 0.096; under P40Y, -0.633 ± 0.19.
With L9G, the abundance fitness was -0.624 ± 0.067.
As to L9Y, the abundance fitness is -0.644 ± 0.28.
For L9I, the abundance fitness was -0.429 ± 0.12.
Under L9E stands -0.76 ± 0.17; under L9V, -0.989 ± 0.13.
Consider D78P, for which the abundance fitness was -0.687 ± 0.1.
In the case of D78Y it was -0.218 ± 0.11; in that of D78W, -0.141 ± 0.06.
On to A8L, for which the abundance fitness was -0.79 ± 0.13.
In the case of A8H it was -0.375 ± 0.11; in that of A8K, -0.521 ± 0.13.
Under D21W stands -0.496 ± 0.084; under D21Y, -0.805 ± 0.11; under D21P, -0.987 ± 0.19.
In the case of F50P it was -0.607 ± 0.098; in that of F50Q, -0.871 ± 0.18.
Consider F50L, for which the abundance fitness worked out at 0.182 ± 0.046.
As for F50Y, the abundance fitness was found to be 0.015 ± 0.26.
In the case of F50V it was -0.536 ± 0.073; in that of D30L, -0.097 ± 0.047.
Under D30H stands 0.094 ± 0.14; under D30K, -0.416 ± 0.12; under R6K, 0.014 ± 0.1.
In the case of R6I it was -0.389 ± 0.14; in that of R6P, -0.685 ± 0.13.
With R6S, the abundance fitness was -0.385 ± 0.048.

(Values after the Human Domainome abundance scans (Beltran et al. 2025).)
